Patent publication US20120245104A1, “NOVEL RETRO-INVERSO LEPTIN PEPTIDE ANTAGONISTS” (priority 2011, published 2012)
Where no end group is shown, it is not given here.

T1: leptin receptor (ObR) (UniProt P48357 22-1165, limits assumed)
T1 sequence (looked up): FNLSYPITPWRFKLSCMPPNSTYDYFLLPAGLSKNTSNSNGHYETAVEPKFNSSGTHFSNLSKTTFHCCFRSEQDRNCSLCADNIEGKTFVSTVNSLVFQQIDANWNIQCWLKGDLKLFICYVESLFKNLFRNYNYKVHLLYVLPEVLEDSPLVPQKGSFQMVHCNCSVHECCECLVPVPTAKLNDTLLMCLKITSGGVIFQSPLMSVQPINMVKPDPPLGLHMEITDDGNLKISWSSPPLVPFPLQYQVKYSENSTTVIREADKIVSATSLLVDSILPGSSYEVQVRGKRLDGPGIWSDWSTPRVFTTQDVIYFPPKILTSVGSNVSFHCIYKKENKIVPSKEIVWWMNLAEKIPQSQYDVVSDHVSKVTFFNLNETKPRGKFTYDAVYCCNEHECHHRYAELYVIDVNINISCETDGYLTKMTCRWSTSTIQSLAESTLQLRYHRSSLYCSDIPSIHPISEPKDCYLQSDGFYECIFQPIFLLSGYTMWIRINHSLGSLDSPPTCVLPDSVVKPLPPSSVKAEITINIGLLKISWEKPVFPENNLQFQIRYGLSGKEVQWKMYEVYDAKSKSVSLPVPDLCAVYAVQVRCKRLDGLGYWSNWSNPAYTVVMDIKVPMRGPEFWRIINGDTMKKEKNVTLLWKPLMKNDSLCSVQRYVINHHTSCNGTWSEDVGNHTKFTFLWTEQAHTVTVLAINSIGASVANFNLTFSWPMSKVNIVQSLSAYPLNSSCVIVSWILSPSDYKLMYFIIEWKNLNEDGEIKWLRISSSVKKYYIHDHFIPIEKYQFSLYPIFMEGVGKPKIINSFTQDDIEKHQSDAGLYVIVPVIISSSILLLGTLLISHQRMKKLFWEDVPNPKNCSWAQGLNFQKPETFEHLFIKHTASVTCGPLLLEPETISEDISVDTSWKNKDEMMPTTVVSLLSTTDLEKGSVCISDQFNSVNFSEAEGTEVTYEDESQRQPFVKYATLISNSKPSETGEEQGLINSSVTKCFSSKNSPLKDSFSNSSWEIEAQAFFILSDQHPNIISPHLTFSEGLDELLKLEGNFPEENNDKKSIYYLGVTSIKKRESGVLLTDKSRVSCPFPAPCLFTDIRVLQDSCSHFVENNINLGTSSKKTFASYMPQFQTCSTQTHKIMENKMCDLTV


How the values were obtained:
[1] = target: T1, leptin receptor (ObR); test: cell-based or functional assay
[2] = target: T1, leptin receptor (ObR); test: cell-based or functional assay; remark: listed apart in the source

Row | Binder | IC50 (half maximal inhibitory concentration), inhibition of leptin-induced cell growth [1] [nM] | IC50, inhibition of leptin-induced growth of MCF-7 cells [2] [nM]
1 | NVIQISNLLENLRDLLHV-NH2 [Truncated LPA-2 (72-89), D79 Leu substitution] | 16 | 
2 | VQDDIKTLIKTIVTRINDI-NH2 [Truncated LPA-1 (6-24), T10 Ile substitution] | 21 | 
3 | SRNVIQISNDLENLRDLLHVLAFSKS-NH2 [Full-length LPA-2 (70-95)] | 33 | 33
4 | NVIQISNILENLRDLLHV-NH2 [Truncated LPA-2 (72-89), D79 Ile substitution] | 16 | 
5 | IQKVQDDTKTLIKTIVTRINDISHTQSVSSKQ-NH2 [Full-length LPA-1 (3-34)] | 39.1 | 39.1
6 | NVIQISNALENLRDLLHV-NH2 [Truncated LPA-2 (72-89), D79 Ala substitution] | 54 | 
7 | NVIQISNDLENLRDLLHV-NH2 [Truncated LPA-2 (72-89), D79 (original amino acid)] | 32 | 32
8 | VQDDTKTLIKTIVTRINDI-NH2 [Truncated LPA-1 (6-24), T10 (original amino acid)] | 25.7 | 25.7
